Reference: PMC11736000, “Structural and functional analysis of a bile salt hydrolase from the bison microbiome” (The Journal of Biological Chemistry, 2024)

Columns and labels:
Experiment in all cases: steady-state kinetics (KM), o-phthaladehyde assay; HPLC/MS
Format in all cases: biochemical, Arthrobacter citreus
[1] = substrate: C[C@H](CCC(=O)NCC(=O)O)[C@H]1CC[C@H]2[C@@H]3CC[C@@H]4C[C@H](O)CC[C@]4(C)[C@H]3C[C@H](O)[C@]12C
[2] = substrate: C[C@H](CCC(=O)NCC(=O)O)[C@H]1CC[C@H]2[C@@H]3[C@H](O)C[C@@H]4C[C@H](O)CC[C@]4(C)[C@H]3C[C@H](O)[C@]12C
[3] = substrate: C[C@H](CCC(=O)NCCS(=O)(=O)O)[C@H]1CC[C@H]2[C@@H]3CC[C@@H]4C[C@H](O)CC[C@]4(C)[C@H]3C[C@H](O)[C@]12C

B1: bile salt hydrolase from Arthrobacter citreus EINP1 (BSHAc) (Arthrobacter citreus) (protein)
chain: CTGIRYSDGSGNLYLARNLDWTSDFGERVVVTPTGYTTKSPFGAVPAIRHAVIGMGIVQEDTPLYFDCGNDAGLAVAGLNFPGYAQYATEAVDGATNVAAFEFPLWVASQFASVDEVEAALADVVIVDRPINDKYPSSLLHWIIGDSKRAIVVEYTSDGLHVFDDDVDVLANQPGFGWHHENLRNYLNASPDFPEKIVLNRADLVPFGSGSLMRGIPGDYYSPSRFVRAAYVHAHYPGKSTEEENVSRAFHTLQQVAMVDGSAAMGSGEFEKTTYTGLFSSRTMTYYWNTYEDPAVRSVAMADHAADGTELVVV
notes: C-terminally hexahistidine-tagged recombinant BSHAc; NCBI WP_342023006.1
B1 showed a Km [1] of 380 µM, a kcat [1] of 1630 ± 40 s⁻¹ and a kcat/Km [1] of 4.3e+06 ± 400000 M⁻¹ s⁻¹. For the same protein, the Km [2] was 1700 µM, the kcat [2] was 1500 ± 50 s⁻¹ and the kcat/Km [2] was 880000 ± 10000 M⁻¹ s⁻¹. The Km [3] was 740 µM, the kcat [3] was 342 ± 6 s⁻¹ and the kcat/Km [3] was 460000 ± 50000 M⁻¹ s⁻¹.
